# Test: soluble on expression in E. coli; label from the status in PepcDB or PDB records
row,Sequence,soluble on expression in E. coli
1,MWHIFERFVNEYERWFLVHRFAYLSELQAVKCLLPEGRGVEIGVGTGRFAVPLKIKIGVEPSERMAEIARKRGVFVLKGTAENLPLKDESFDFALMVTTICFVDDPERALKEAYRILKKGGYLIVGIVDRESFLGREYEKNKEKSVFYKNARFFSTEELMDLMRKAGFEEFKVVQTLFKHPSELSEIEPVKEGYGEGAFVVIRGTKK,soluble
2,SNAMQAIRSILVVIEPDQLEGLALKRAQLIAGVTQSHLHLLVCEKRRDHSAALNDLAQELREEGYSVSTNQAWKDSLHQTIIAEQQAEGCGLIIKQHFPDNPLKKAILTPDDWKLLRFAPCPVLMTKTARPWTGGKILAAVDVGNNDGEHRSLHAGIISHAYDIAGLAKATLHVISAHPSPMLSSADPTFQLSETIEARYREACRTFQAEYGFSDEQLHIEEGPADVLIPRTAQKLDAVVTVIGTVARTGLSGALIGNTAEVVLDTLESDVLVLKPDDIIAHLEELASKE,soluble
3,MGSSHHHHHHSSGLVPRGSHMAMVELSGTVTFWDTSNEAEKATYQALAEGFEKEHPKVDVKYVNVPFGEANAKFKNAAGGNSGAPDVMRTEVAWVADFASIGYLAPLDGTPALDDGSDHLPQAAASTRYEGKTYAVPQVIDTLALFYNKELLTKAGVEVPGSVAELKTAAAEITEKTGATGLYLRGDDPYWFLPYLYGEGGDLVDEKNKTVTVDDEAGVRAYRVIKDLVDSKAAITDASDGWNNMQNAFKSGKVAMMVNGPWAIEDVKAGARFKDAGNLGVAPVPAGSAGQGSPQGGWNLSVYAGSKNLDASYAFVKYMSSAKVQQQTTEKLSLLPTRTSVYEVPSVADNEMVKFFKPAVDKAVERPWIAEGNALFEPIRLQMANVLSGETSPDEAAANTGDAYRKLLKDYK,soluble
4,MADSAELKQMVMSLRVSELQVLLGYAGRNKHGRKHELLTKALHLLKAGCSPAVQMKIKELYRRRF,soluble
5,SVRRKSCIVKEMEKMKNKREEKRAQNSELRIKRAQEYDSSFPNWEFARMIKEFRVTMECSPLTVTDPIEEHRICVCVRKRPLNKQELAKKEIDVISVPSKCLLLVHEPKLKVDLTKYLENQAFCFDFAFDETASNEVVYRFTARPLVQTIFEGGKATCFAYGQTGSGKTHTMGGDLSGKSQNASKGIYAMASRDVFLLKNQPRYRNLNLEVYVTFFEIYNGKVFDLLNKKAKLRVLEDSRQQVQVVGLQEYLVTCADDVIKMINMGSACRTSGQTFANSNSSRSHACFQILLRTKGRLHGKFSLVDLAGNERGADTSSADRQTRMEGAEINKSLLALKECIRALGQNKAHTPFRESKLTQVLRDSFIGENSRTCMIAMISPGISSCEYTLNTLRYADRVKELSHHHHHHH,soluble
6,MAAEDELQLPRLPELFETGRQLLDEVEVATEPAGSRIVQEKVFKGLDLLEKAAEMLSQLDLFSRNEDLEEIASTDLKYLLVPAFQGALTMKQVNPSKRLDHLQRAREHFINYLTQCHCYHVAEFELPKTMNNSAENHTANSSMAYPSLVAMASQRQAKIQRYKQKKELEHRLSAMKSAVESGQADDERVREYYLLHLQRWIDISLEEIESIDQEIKILRERDSSREASTSNSSRQERPPVKPFILTRNMAQAKVFGAGYPSLPTMTVSDWYEQHRKYGALPDQGIAKAAPEEFRKAAQQQEEQEEKEEEDDEQTLHRAREWDDWKDTHPRGYGNRQNMGLEHHHHHH,soluble
7,ATCYCRTGRCATRESLSGVCEISGRLYRLCCR,soluble
8,MTRACNLYVFKNKYVSFNLLDSPNSNPKLLKISLPFNFMDEFEGLLKAVGSAPWYKLIGMVPKLQGDRVVVEMEIDRSKHLQALGTTHGGAIASVLDSAIGLNVNREVVKMGKTAVTAQLNIHYIRPVTEGKIVGVGMPMHIGSKVTVGYGEVRNEEGELVAAGTATFYIIDRRFRD,soluble
9,MSLTPKKISSISLEVTGSIVSIGLAVYKDIFEYINLVTHKFIYFQDLERKNIELQLEIARLQHLQSEVESVKAENIALKDLLMIAEEEEFEYLTTKLLSVSFNPFSRTALISAGKKQGIEPDQIVVNSGKLVGKIIEVSNNYSKVMLISDVNSRIPIKANSSREQGILAGNNNNSKILYLPNNHLVQKDEEIVTSGHGNIYPAGILVGYVSRVTENDVIVNLAADLSKMEFVQILLPKQEGHHHHHH,soluble
10,MGSDKIHHHHHHMKLAKKYYAVRKGRVPGIYKTWKEAEEQVKGFPGAEYKSFERLEDAKAYMEGKNECICPELDTETMIAYVDGSYDEVCGSGIVLCYRGKKEEYYFWTNIEEFKDSRNITGEIMAALFAMDYALKKGARKLVLRYDLEGLEKWATEEYRTNKLVTKVYRHYYRKFCQMGLKVVFEKIKSHSGNFCNDEADSLAKKASKKESNVEWMPEDFESIIRTLTKKGGCL,not soluble
11,MGSDKIHHHHHHLAKNNPISIPVSELRLGLTVKLPLSWTEHPFLINRIELKEQAQIEMIRGLKVQHVLVLAGAELLDEDVPKEEVPIEDDGFDEDMPERDVKREARVAIRKSQKRFLDCVNDSRSLVGKLGSDPEGAYRLSATLVEQMLEHLFEQEAAYLALVSAGEQGASVTQHGISVAVLSLMIAKSMDMPKKDMRDIALGALLHDIGKLRVPDNIRRKRGPLTTQEINFMNQHPNYGHEMLSRSGLFPEEVLHIIRHHHEFIDGTGFPGGLNGKKIPRTTQIVTLANDFEDQMTSHSIASPQVALGYLFKHRVGKHDEALIATLVKVLRHLSARYSGASHRRFFGKGDDDHPGSQAASGVGLQRRRRRPRPQNLDE,not soluble
12,MSESCNSLTVVFTDSPKIDDHLFAKAIRWADQNPDDTIFWARRKALERIPEIDVEFSMKAGALRRIRFGYSSKKLLQGCIDIALKASIGSEVAAIFCSMSIPQDCPELGCLLAALANFCNVDDGRAVVVIDLRDDNDDEKQEGVEESDPFENANFLEEEIVENPKELSNEPRETQTQEEFLEKLKRVASIYTKNVLLFDGNEEKFSNCF,not soluble
13,MKAVGLVVEYNPFHNGHLYHAQTAKLQTGCDTAVAVMSGHFLQRGEPAVVSKWARTKMALQSGVDLVIELPYLYAVQKADIFARGSVSILNELECEALFFGSENGDIKPFLETAQLIDEHKHILNDRIKEELKKGASYPAAAAIAFSSILHTESALDLSKPNNILGYQYVTSILTGGYPMKPYTTARISSDYHDADLPEGENHIASATSIRKAMIGQNLEACLRFLPAASARELAAYRKSFGLWHTPESYFSYLKYSLSTVTARELQQVYEVEEGLEHRIIRSIRKSSSYQEFMELLKTKRYTWTRLQRMNTHILTRTKKQDMQKLLDNDKAPYIRLLGMTKKGQAYLSEKKKALSVPLVSKLSSFSHPALDLDVKASRIYSLPIEEPLRTEFDLQEYG,not soluble
14,GPGSMGADIVEVDVWRTSDGALILMHDETLDRTTNGTGRVCDHTLAEVRALRLKDGLGNMTEFTVPTVEEVLLLAKDRAILNLDKADVYLDELYPLLVKTGMVEQTILKSEIPFDELCKRYSADLLNRVIFMPILNITDTTTYKNIDRAFAANHALYEVNFEKENADVLQYIRKLAKNSGAALWINTIWPTTCGGYSDDHALRDKDANWGYVVDRIGAGIIQTDRPAMLLAYLQERGCR,not soluble
15,MEKNEKNGVFSRVRSRWRSIFSKKANPVKLRDCNRLTFERILSDPNEQIGTIVAQATVEPITLPNGGGIALIQETTLYEEDYGLEDSSNFPIISETAQSLRRRMRRLSSGDLNVIRRMTEEIDFDLKNIIYDGNEITGETDADNGNDRACFKPGPDYPIDQQMLFLKQCIKKIDTRPPNMYYLTNGWSVDNFEALFKYMIRSGEDCSRDTLLRVEFRDCVVSLKSLYDFIEEYATFKGVKMHSDYVYAIVHSRNEKLERRLRGAIDSFMEIESKIRQARISYVSSFTINSPHTPNVSIIVKFCCLKPCNSDAKTKMRQISVQVDHVTGRSRMSLPDVRQHEGLVCECLGDFSLIRHRPTSVPVTKILDEHPPLIVDEEVRLKSSYQFNPVTGEPIPDDEQQQEQTEIEVNKKIKKPKIVPNQTLLGNEHDIFPRFSIFIGFYKASIEDPLEINDFVEMFPLILVLLEKAGIQELEDGDAPEKSVSKYPKKRSIVDGASSETCEDTQSVGSSESSEPRSPEFTEYSESEDTAADSETSDSESSSEDEKENMKSSIKELELIKDAPEDL,soluble
16,HGYVESPASRAYQCKLQLNTQCGSVQAEPQSVEGLKGFPQAGPADGHIASADKSTFFELDQQTPTRWNKLNLKTGPNSFTWKLTARHSTTSWRYFITKPNWDASQPLTRASFDLTPFCQFNDGGAIPAAQVTHQCNIPADRSGSHVILAVWDIADTANAFYQAIDVNLSK,soluble
17,MSLLIDKFGRPVTNLRISLTKECNLNCFYCHREGQQDGERTMTPEEIERIVRIASRLGIRNVKLTGGEPTVRPDIYEIIQRIRPYVVDLSMTTNGTTLYASAEKLKEAGLDRVNISLDTLDRKKYKMITGYDVLDQVLKGIRRATNLFYPVKLNMVVMRGINDDEIWDMIRFAGEVNAILQLIEIEVPREMENSQFFKDFFYPLKPLEEKFEKIAVEIRERKMHRRRKYFLPVDGKMVEVEVVRSMHNTTFCMNCTRLRLTADGYLKTCLLRKDDLIDILGPIRRGATDDELVKIFKRAVQLRKPYWINEGHHHHHH,soluble
18,MSSGFAVSARSLALMATLAFAAPALAQQYGGEVDPEIRIQQLEDRLRTLTGQNEELQHRNRRLEEQVRQLQSGAGAPGAQQPAPNQATTPPAAPQQPYSQPAQQPAYGQQQPGYGQPQAPMVQPQPAAPQGGGRRGDAFDPSRDPNAPGVPRALGGGQLPMEQSGGMPAGRAAGAPMDLSNGNGGYVQGGYPQGGAPSAAKQPPAATAGGALTTQPPSQTPRDEFDLGIGYMQRRDYALAEETMRNFAQKYPDNPLTADAQYWLGESFFQRQMYRDAAEAFLAVTSKHEKSGKAPDALLRLGQSLSALKEKEAACAALGEIGRKYPQASSSVKKAVDREQKKLKC,not soluble
19,MANPAAAAGPSGGARSFLQAVSTVTEEAPSPLRVVQMEGLAVLKIIKHCEEFAPALVTGQLLGLDVGSVLEVTNCFPFPMREDDEEADADGANYQLEMMRCLREVNVDNNTVGWYQSCLLGSFQTVELIETFMNYQENIRRCVCIVYDPSRSNQGVLALKALKLTDSFMDLYRNNGLTGEKLREKKLSWVDIFEEIPIKVSNSALVSAFMTELEPESPVSQCDFDRLKLSTAPFMERNLEFLIGCMDDLSSEQNKFQYYYRNVSRQQSQQQAWLQKRRQENMARKAAGEEPLPEEDPSNPIFKPIPEPSRLEGYLVTNQISSYCNHINGVAGQNFNRLYLMKALQED,soluble
20,MIVPGGFPAPVTGSAVAASPPLPTVRLLSLDAHGRVLDWINWQDAACLYARDAVSWTLGEPCMQIHGGVSRLTGERSVLELHPIIAARGHARSRALDPTPTLTNTALFARDSQLCMYCGQHFSRPHLTRDHVMPVSKGGRDSWENVVTACFQCNSRKANRTPQQAHMPLLAVPYRPSWIEHLILSNRNILSDQMAFLRAQLPKRSKLSLLEHHHHHH,not soluble
21,MSLLNIKFTDNAVDYLKRREILDKILILITDDGGGKYSIQGGSCSMGAHFSIIWLDKVDPDYPVKIANEQNVKIYTSDFDKTMLGPNMVMDYNAGSLSLSSDEGLLDGSVDIGNGAALLKANKNVQMGINRQCEGHHHHHH,soluble
22,MQRYKLPVSVLVVIYTADLQVLLLERADHPGYWQSVTGSQDPGETLLQTAVREVREETGLNTDDYVLSDWQIQNRYEIFEEWNWRYPPGTTHNTEHVFGLELPKTIPAVVSSREHLGYVWLPWREAAEKVFSSSNACAIRMLASKRKSENSR,not soluble

# Reference: the DeepSol protein solubility set
